Laboratory results as given in patent US6461630.

Target: demineralized, guanidine-extracted bovine collagen carrier matrix material (bovine) (UniProt P02453)
Assay: OP-1 in 47.5% ethanol/0.01% TFA incubated 3 h with bovine collagen matrix; fraction bound to the matrix before lyophilization

Sequence of OP-1 (P18075 293-431 limits assumed): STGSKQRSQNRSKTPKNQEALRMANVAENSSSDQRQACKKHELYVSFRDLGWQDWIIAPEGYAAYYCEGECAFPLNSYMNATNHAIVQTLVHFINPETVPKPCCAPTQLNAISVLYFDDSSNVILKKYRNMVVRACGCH

% OP-1 bound at 3 hr: 53 to 64%
Substance: OP-1 (from UniProt P18075 293-431) (ligand)
